The source of these data is patent US20230235090A1 (HARBOUR BIOMED US, published 2023).

The term EC50 denotes the concentration needed to bring the measured effect to its halfway point. As a reminder, the EC50 (read off the curve) is the concentration at which the effect is half-maximal.

Test [1] concerns the target T1, human 4-1BB (human, UniProt Q07011 24-255).
T1 construct: whole, on cells; also called CD137; TNFRSF9
Nature of the test: FACS, CHO-K1/hu 4-1BB cells [G]. In general terms: Flow cytometry measures light scatter and fluorescence of single cells or particles in a stream.
Experimental: (§1) This example is intended to investigate the in vitro binding activity of anti-human 4-1BB HCAb and H2L2 monoclonal antibodies to human and cynomolgus monkey 4-1BB. Antibody binding experiments at the cellular level were conducted using a CHO-K1 cell strain overexpressing human 4-1BB (CHO-K1-hu 4-1BB, Genescript) and a CHO-K1 cell strain overexpressing cynomolgus monkey 4-1BB (CHO-K1-cyno 4-1BB, Genescript). Briefly, the CHO-K1-hu 4-1BB and CHO-K1-cyno 4-1BB cells were digested and resuspended in DMEM complete medium, and the cell density was adjusted to 1×10⁶ cells/mL. […] The cells were incubated at 4° C. for 1 h away from light. Thereafter, the cells in each well were rinsed twice with 100 μL of pre-cooled PBS, and centrifuged at 500 g at 4° C. for 5 min, and then the supernatant was discarded. […] The plate was incubated away from light at 4° C. for 30 min. The cells in each well were rinsed twice with 100 μL of pre-cooled PBS, and centrifuged at 500 g at 4° C. for 5 min, and then the supernatant was discarded. Finally, the cells in each well were resuspended in 200 μL of pre-cooled PBS, and the fluorescence signal values were read using a BD FACS CANTOII.

For test [2], the target named is T2, cynomolgus monkey 4-1BB (cynomolgus monkey).
T2 construct: whole, on cells; also called CHO-K1-cyno 4-1BB; CHO-K1/cyno4-1BB
The test can be described thus: FACS, CHO-K1/cyno 4-1BB cells [F].
Experimental: as §1

Test [3] addresses T1, human 4-1BB. The test can be described thus: FACS on CHO-K1-hu 4-1BB cells.
The target in test [4] is T3, human B7-H4 (human, UniProt Q7Z7D3 25-282).
T3 construct: whole, on cells; also called VTCN1; SK-BR-3 cell line highly expressing B7-H4
T3 sequence (looked up): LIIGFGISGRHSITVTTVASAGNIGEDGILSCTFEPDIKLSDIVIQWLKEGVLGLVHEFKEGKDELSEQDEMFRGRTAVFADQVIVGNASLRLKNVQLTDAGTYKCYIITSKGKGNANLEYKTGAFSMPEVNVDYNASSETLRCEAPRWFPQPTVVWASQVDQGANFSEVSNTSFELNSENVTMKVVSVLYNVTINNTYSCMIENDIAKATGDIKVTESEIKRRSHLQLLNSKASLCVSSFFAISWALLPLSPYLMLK
Nature of the test: FACS, SKBR3 cells [A].

Test [5] addresses T3, human B7-H4. The test can be described thus: FACS, SK-BR-3 cells [A].
Experimental: (§2) This example is intended to investigate the in vitro binding activity of anti-human B7-H4 H2L2 monoclonal antibody to human/cynomolgus monkey/mouse B7-H4. Antibody binding experiments at the cellular level were conducted using a CHO-K1 cell strain overexpressing cynomolgus monkey B7-H4 (CHO-K1/cyno B7-H4, prepared in-house by Harbour Biomed), a CHO-K1 cell strain overexpressing mouse B7-H4 (CHO-K1/m B7-H4, prepared in-house by Harbour Biomed) and an SK-BR-3 cell line highly expressing human B7-H4 (ATCC® HTB-30). Briefly, the CHO-K1/cyno B7-H4 cells, CHO-K1/m B7-H4 cells or SK-BR-3 cells were digested and resuspended with PBS containing 2% BSA. The cell density was adjusted to 1×10⁶ cells/mL. […] The cells were incubated at 4° C. for 2 h away from light. Thereafter, the cells in each well were rinsed twice with 100 μL of pre-cooled PBS containing 2% BSA, and centrifuged at 500 g at 4° C. for 5 min, and then the supernatant was discarded. […] The plate was incubated away from light at 4° C. for 1 h. The cells in each well were rinsed twice with 100 μL of pre-cooled PBS containing 2% BSA, and centrifuged at 500 g at 4° C. for 5 min, and then the supernatant was discarded. Finally, the cells in each well were resuspended in 200 μL of pre-cooled PBS containing 2% BSA, and the fluorescence signal values were read using an ACEA Novocyte3000 flow cytometer.
Test [6] concerns the target T3, human B7-H4. The test can be described thus: FACS, MDA-MB-468 cells [A].
Another test addresses T4, mouse B7-H4 (mouse, UniProt Q7TSP5 25-257).
T4 construct: whole, on cells; also called CHO-K1/m B7-H4; CHO-K1/mB7-H4
T4 sequence (looked up): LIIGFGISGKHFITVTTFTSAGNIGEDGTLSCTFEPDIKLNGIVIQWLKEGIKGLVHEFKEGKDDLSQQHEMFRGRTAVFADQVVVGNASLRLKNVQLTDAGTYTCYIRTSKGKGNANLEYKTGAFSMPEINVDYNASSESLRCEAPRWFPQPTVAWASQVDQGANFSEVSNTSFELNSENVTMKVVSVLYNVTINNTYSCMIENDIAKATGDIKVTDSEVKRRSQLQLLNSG
Nature of the test: FACS, CHO-K1/m B7H4 cells [C].

For another test, the target named is T5, cynomolgus monkey B7-H4 (cynomolgus monkey, UniProt A0A2K5U6P5 25-282).
T5 construct: whole, on cells; also called CHO-K1/cyno B7-H4; CHO-K1/cynoB7H4
T5 sequence: T3 sequence (looked up) with L53I, F242L, S252A
Nature of the test: FACS, CHO-K1/cyno B7H4 cells [B].

Test [7] concerns the target T1, human 4-1BB. Nature of the test: FACS, CHO-K1/h4-1BB cells [K].
Experimental: (§3) Antibody binding experiments at the cellular level were conducted using a CHO-K1 cell strain overexpressing human 4-1BB (CHO-K1/hu 4-1BB, Genscript, #M00538) and a CHO-K1 cell strain overexpressing cynomolgus monkey 4-1BB (CHO-K1/cyno 4-1BB, Genscript, #M00569). Briefly, the CHO-K1-hu 4-1BB and CHO-K1/cyno 4-1BB cells were digested, resuspended in F12K complete medium, and washed once with PBS. The cell density was adjusted to 1×10⁶ cells/mL with PBS. […] The cells were incubated at 4° C. for 1 h away from light. Thereafter, the cells in each well were rinsed twice with 100 μL of pre-cooled PBS, and centrifuged at 500 g at 4° C. for 5 min, and then the supernatant was discarded. […] The plate was incubated away from light at 4° C. for 30 min. The cells in each well were rinsed twice with 100 μL of pre-cooled PBS, and centrifuged at 500 g at 4° C. for 5 min, and then the supernatant was discarded. Finally, the cells in each well were resuspended in 200 μL of pre-cooled PBS, and the fluorescence signal values were read using a BD FACS CANTOII or an ACEA NovoCyte flow cytometer.
Test [8] has as its target T1, human 4-1BB. The test can be described thus: FACS, CHO-K1/hu 4-1BB cells [A].
Experimental: as §1
Test [9] addresses T2, cynomolgus monkey 4-1BB. Nature of the test: FACS, CHO-K1/cyno 4-1BB cells [A].
Experimental: as §1
The target of test [10] is T1, human 4-1BB. Nature of the test: FACS, CHO-K1/hu 4-1BB cells [I].
Experimental: as §1
For test [11], the target named is T2, cynomolgus monkey 4-1BB. The test can be described thus: FACS, CHO-K1/cyno 4-1BB cells [H].
Experimental: (§4) Antibody binding experiments at the cellular level were conducted using a CHO-K1 cell strain overexpressing human 4-1BB (CHO-K1-hu 4-1BB, Genescript) and a CHO-K1 cell strain overexpressing cynomolgus monkey 4-1BB (CHO-K1-cyno 4-1BB, Genescript). Briefly, the CHO-K1-hu 4-1BB and CHO-K1-cyno 4-1BB cells were digested and resuspended in DMEM complete medium, and the cell density was adjusted to 1×10⁶ cells/mL. […] The cells were incubated at 4° C. for 1 h away from light. Thereafter, the cells in each well were rinsed twice with 100 μL of pre-cooled PBS, and centrifuged at 500 g at 4° C. for 5 min, and then the supernatant was discarded. […] The plate was incubated away from light at 4° C. for 30 min. The cells in each well were rinsed twice with 100 μL of pre-cooled PBS, and centrifuged at 500 g at 4° C. for 5 min, and then the supernatant was discarded. Finally, the cells in each well were resuspended in 200 μL of pre-cooled PBS, and the fluorescence signal values were read using a BD FACS CANTOII.
The target in test [12] is T2, cynomolgus monkey 4-1BB. The test can be described thus: FACS, CHO-K1/cyno 4-1BB cells [B].
Experimental: as §1
The target in test [13] is T2, cynomolgus monkey 4-1BB. The test can be described thus: FACS, CHO-K1/cyno 4-1BB cells [C].
Experimental: as §1
Test [14] has as its target T2, cynomolgus monkey 4-1BB. Nature of the test: FACS, CHO-K1/cyno 4-1BB cells [D].
Experimental: as §1
Test [15] has as its target T2, cynomolgus monkey 4-1BB. Nature of the test: FACS, CHO-K1/cyno 4-1BB cells [E].
Experimental: as §1
The target of test [16] is T1, human 4-1BB. Nature of the test: FACS, CHO-K1/hu 4-1BB cells [F].
Experimental: as §1
The target in test [17] is T1, human 4-1BB. The test can be described thus: FACS, CHO-K1/hu 4-1BB cells [H].
Experimental: as §4
In test [18] the target is T2, cynomolgus monkey 4-1BB. The test can be described thus: FACS, CHO-K1/cyno 4-1BB cells [G].
Experimental: as §4
For test [19], the target named is T1, human 4-1BB. The test can be described thus: FACS, CHO-K1/h4-1BB cells [L].
Experimental: as §3
For test [20], the target named is T1, human 4-1BB. The test can be described thus: FACS, CHO-K1/h4-1BB cells [A].
Experimental: (§5) Antibody binding experiments at the cellular level were conducted using a CHO-K1 cell strain overexpressing human 4-1BB (CHO-K1/h4-1BB, Gensript, #M00538), a CHO-K1 cell strain expressing cynomolgus monkey 4-1BB (CHO-K1/cyno4-1BB, Genscript, #M00569) and a CHO-K1 cell strain overexpressing mouse 4-1BB (CHO-K1/m4-1BB, Genscript, #M00568). Briefly, the CHO-K1/h4-1BB cells, CHO-K1/cyno 4-1BB cells and CHO-K1/m 4-1BB cells were digested and resuspended with PBS containing 2% FBS. The cell density was adjusted to 1×10⁶ cells/mL. […] The cells were incubated at 4° C. for 2 h away from light. Thereafter, the cells in each well were rinsed twice with 100 μL of a pre-cooled FACS buffer, PBS containing 2% FBS, and centrifuged at 500 g at 4° C. for 5 min, and then the supernatant was discarded. […] The plate was incubated away from light at 4° C. for 1 h. The cells in each well were rinsed twice with 100 μL of pre-cooled FACS buffer, and centrifuged at 500 g at 4° C. for 5 min, and then the supernatant was discarded. Finally, the cells in each well were resuspended in 200 μL of pre-cooled FACS buffer, and the fluorescence signal values were read using an ACEA Novocyte3000 flow cytometer.
For test [21], the target named is T2, cynomolgus monkey 4-1BB. Nature of the test: FACS, CHO-K1/cyno-4-1BB cells [B].
Experimental: as §5

Numbering of substitutions follows the chain as printed. Names and notes keep the numbering of the source.

T1 sequence (Q07011 24-255): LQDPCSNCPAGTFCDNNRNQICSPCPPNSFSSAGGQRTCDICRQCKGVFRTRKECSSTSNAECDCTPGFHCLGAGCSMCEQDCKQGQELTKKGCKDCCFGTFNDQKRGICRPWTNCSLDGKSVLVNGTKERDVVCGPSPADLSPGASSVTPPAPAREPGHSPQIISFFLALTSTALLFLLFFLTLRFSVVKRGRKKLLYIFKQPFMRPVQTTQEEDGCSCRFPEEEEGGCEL
Experimental for cynomolgus monkey B7-H4: as §2
Experimental for mouse B7-H4: as §2

B1: PR001842 (antibody, human IgG1, V domains shown)
VH: EVQLLESGGGLVQPGGSLRLSCAASGFTFSSYAMSWGRQAPGKGLEWVSAISGSGGSTYYADSVKGRFTISRDNSKNTLYLHMNSLRAEDTAVYYCAKEKVATTGDYYYDMDVWGQGTTVTVSS
notes: anti-4-1BB HCAb, human IgG1 Fc
In the test with human 4-1BB [1], B1 returned an EC50 of 0.537 nM. In addition, in the test with cynomolgus monkey 4-1BB [2], a half-maximal response (EC50) required 2.29 nM and the “Maximum MFI” value came to 9660 MFI.

B2: PR007381 (antibody, human IgG1, V domains shown)
VH: EVQLLESGGGLVQPGGSLRLSCAASGFTFSNYAMSWVRQAPGKGLEWVSSIDASGGDTYYADSVKGRFTISRDNSKNTLYLQMNSLRAEDTAVYYCAKEGSHGTDDSHYDVDVWGQGTTVTVSS
notes: anti-4-1BB HCAb, human IgG1 Fc; also called germline variant of PR004469
With B2, the binding result with human 4-1BB [3] is recorded as “binds”.

B3: control antibody 1 (PR000157) (antibody, V domains shown)
VH: EVQLVQSGAEVKKPGASVKVSCKASGYTFTSYWIGWVRQAPGQGLEWIGDIYPGGGYTNYNEKFKGRVTITRDTSTSTAYLELSSLRSEDTAVYYCARLAGSSYRGAMDSWGQGTLVTVSS
VL: DIQMTQSPSSLSASVGDRVTITCKASQGFNKYVAWYQQKPGKAPKLLIYYTSTLQPGVPSRFSGSGSGRDYTLTISSLQPEDFATYYCLQYGDLLYAFGQGTKVEIKR
notes: also called Positive control 1; 1D11.v1.9varC2
On to B3, for which the “EC50 (read off the curve)” value with human B7-H4 [4] is roughly 4 nM; in the test with human B7-H4 [6], roughly 6 nM. Besides, the EC50 with human B7-H4 [5] amounted to 1.2 nM; in the test with mouse B7-H4 it was 1.73 nM; in the test with cynomolgus monkey B7-H4 it was 2.1 nM. Besides, the “Maximum MFI” value with human B7-H4 [5] worked out at 266000 MFI; with mouse B7-H4, 1.75e+06 MFI; with cynomolgus monkey B7-H4, 1.99e+06 MFI.

B4: PR001760 (antibody, human IgG1, V domains shown)
VH: EVQLVESGGGVVQPGGSLRLSCAASGFTFSNYAMTWVRQAPEKGLEWVSSISGSGVSTYYADSVKGRFTISRDNSKNTLYLQMTRLTAEDTAVYFCAKEGSSETDDHYYNVDVWGQGTTVTVSS
notes: as for B1
In the case of B4, the results for the EC50 with human 4-1BB [7], with human 4-1BB [8] and in the test with cynomolgus monkey 4-1BB [9] were 3.76 nM, 0.198 nM and 0.443 nM, respectively. The “Maximum MFI” value with human 4-1BB [7] was determined as 83600 MFI; in the test with human 4-1BB [8], 1740 MFI; with cynomolgus monkey 4-1BB [9], 17400 MFI.

B5: PR000448 (antibody, human IgG4 S228P, kappa, V domains shown)
VH: QVQLQQWGAGLLKPSETLSLTCAVYGGSFSGYYWSWIRQPPGKGLEWIGEIQHSGSTDSNPSLKGRVTFSVDTSKNQFSLKLNSVTAADTAVYYCARLTGPFDYWGQGTLVTVSS
VL: EIVMTQSPATLSVSPGERATLSCRASQSISSILAWYQQKPGQAPRLLIYGASTRATGIPARFSGSGSGTEFTLTISSLQSEDFAVYYCQQYYNWPLTFGGGTKVEIKR
notes: anti-4-1BB H2L2 recombinant fully human IgG antibody, human IgG1 / kappa
As for B5, the half-maximal effective concentration (EC50) with human 4-1BB [10] amounted to 0.947 nM; with cynomolgus monkey 4-1BB [11], 1.06 nM.

B6: Utomilumab analog (PR000483) (antibody, human IgG2, lambda, V domains shown)
VH: EVQLVQSGAEVKKPGESLRISCKGSGYSFSTYWISWVRQMPGKGLEWMGKIYPGDSYTNYSPSFQGQVTISADKSISTAYLQWSSLKASDTAMYYCARGYGIFDYWGQGTLVTVSS
VL: SYELTQPPSVSVSPGQTASITCSGDNIGDQYAHWYQQKPGQSPVLVIYQDKNRPSGIPERFSGSNSGNTATLTISGTQAMDEADYYCATYTGFGSLAVFGGGTKLTVLG
notes: anti-4-1BB control antibody; also called Tab
As for B6, the EC50 was 0.485 nM with cynomolgus monkey 4-1BB [9]; 3.46 nM in the test with cynomolgus monkey 4-1BB [12]; 3.46 nM in the test with cynomolgus monkey 4-1BB [13]; 3.46 nM in the test with cynomolgus monkey 4-1BB [14]; 0.485 nM in the test with cynomolgus monkey 4-1BB [15]; 0.485 nM in the test with cynomolgus monkey 4-1BB [2]. Moreover, in the test with cynomolgus monkey 4-1BB [11], it took 0.929 nM to reach a half-maximal effect (EC50). The “Maximum MFI” value came to 11000 MFI in the test with cynomolgus monkey 4-1BB [9]; 55500 MFI with cynomolgus monkey 4-1BB [12]; 55500 MFI with cynomolgus monkey 4-1BB [13]; 55500 MFI in the test with cynomolgus monkey 4-1BB [14]; 11000 MFI with cynomolgus monkey 4-1BB [15]; 11000 MFI with cynomolgus monkey 4-1BB [2].

B7: PR001838 (antibody, human IgG1, V domains shown)
VH: B2 VH with V37F, A40P, G42E, K43T, E46K, A53G
notes: as for B1
Consider B7, for which the EC50 with human 4-1BB [16] was determined as 0.248 nM; with human 4-1BB [17], 0.851 nM; in the test with cynomolgus monkey 4-1BB [2] it was 1.09 nM; with cynomolgus monkey 4-1BB [18] it was 0.329 nM. Also, the “Maximum MFI” value amounted to 1770 MFI with human 4-1BB [16], 102000 MFI with human 4-1BB [17] and 13400 MFI in the test with cynomolgus monkey 4-1BB [2].

B8: PR004469 (antibody, human IgG1, V domains shown)
VH: B2 VH with V37F, A40P, G42E, K43T, E46K
notes: anti-4-1BB HCAb, human IgG1 Fc; also called PTM variant of PR001838 (G53A)
Take B8: the EC50 with human 4-1BB [19] came to 17 nM; in the test with human 4-1BB [20] it was 18 nM; with human 4-1BB [17], 1.29 nM; in the test with cynomolgus monkey 4-1BB [18], 0.568 nM; in the test with cynomolgus monkey 4-1BB [21], 25.4 nM. The “Maximum MFI” value with human 4-1BB [17] came out at 109000 MFI.
